Assay results: US20100092460A1 (Ablynx, published 2010)

Experiments:
[1] = biological target: T1, recombinant human CXCL11/I-TAC (human, UniProt O14625 22-94, biotinylated in the ELISA; 125I label in the radioligand assays); assay: inhibition of 125I-CXCL11 binding to hCXCR3 (HEK293T cells), 10x diluted periplasm; ELISA grade at the label
T1 sequence (looked up): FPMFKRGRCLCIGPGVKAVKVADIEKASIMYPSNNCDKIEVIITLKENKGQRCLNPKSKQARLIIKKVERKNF

[2] = biological target: T1, recombinant human CXCL11/I-TAC; assay: ELISA, Nanobody captured by coated anti-myc antibody, biotinylated CXCL11, streptavidin-HRP
[3] = biological target: T1, recombinant human CXCL11/I-TAC; assay: cell-based or functional assay
[4] = biological target: T1, recombinant human CXCL11/I-TAC; assay: inhibition of 125I-CXCL11 (46 pM) binding to hCXCR3 on HEK293T cells; radioligand preincubated with purified Nanobody
[5] = biological target: T1, recombinant human CXCL11/I-TAC; assay: inhibition of 125I-CXCL11 binding to hCXCR3 (HEK293T cells), 10x diluted periplasm; ELISA grade at the label; remark: listed apart in the source
[6] = biological target: T2, recombinant human CCL2/MCP1 (human, UniProt P13500 24-99, 125I label in the radioligand assays); assay: inhibition of 125I-CCL2 (59 pM) binding to HA3-CCR2 on HEK293T cells; radioligand preincubated with purified Nanobody
T2 construct: Immunogen and selection antigen was the Mucin stalk Chimera (R&D 979-MC/CF)
T2 sequence (P13500 24-99 limits assumed): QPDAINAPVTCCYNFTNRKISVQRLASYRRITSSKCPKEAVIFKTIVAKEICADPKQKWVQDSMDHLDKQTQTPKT

[7] = biological target: T3, recombinant human CCL5/RANTES (Mucin stalk Chimera) (human, UniProt P13501 24-91, biotinylated in the ELISA); assay: ELISA, periplasmic extract on biotinylated mucin-CCL5 on neutravidin, anti-myc detection
T3 construct: also called mucin-CCL5; not shown: mucin stalk of the chimera (R&D 978-RN/CF); origin, limits and order not described
T3 sequence (looked up): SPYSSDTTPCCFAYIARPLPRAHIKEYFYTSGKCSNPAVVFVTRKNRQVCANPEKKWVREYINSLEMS

CCL5 = biological target: T4, CCL5 (UniProt P13501 24-91, 125I label); assay: inhibition of 125I-CCL5 binding to hCCR1 (HEK293T cells), purified Nanobody
T4 construct: also called RANTES
T4 sequence (looked up): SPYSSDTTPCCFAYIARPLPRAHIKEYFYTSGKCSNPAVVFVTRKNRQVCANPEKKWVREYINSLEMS

[8] = biological target: T2, recombinant human CCL2/MCP1; assay: inhibition of 125I-CCL2 binding to hCCR2 (HEK293T cells), purified Nanobody
[9] = biological target: T2, recombinant human CCL2/MCP1; assay: inhibition of 125I-CCL2 binding to HCMV-US28 (HEK293T cells), 10x diluted periplasm; ELISA grade at the label

B1: Nanobody 11F2 (VHH)
VHH: EVQLVESGGGLVQPGGSLRLSCAASGFTFSSYAMSWVRQAPGKGLEWVSSIYSDGSNTYYADSVKGRFTISRDNAKNTLYLQMNSLKSEDTAVYYCAKKDYAVVPLDEYDYWGQGTQVTVSS
notes: llama VHH against CXCL11; also called 38D11; not shown: C-terminal c-myc tag and (His)6 tag coded by the vector
[1]
  binding result: binds

B2: Nanobody 38E6 (VHH)
VHH: EVQLVESGGGLAQPGGSLRLSCAASGFTFSSYAMSWVRQAPGKGLEWVSAINSGGGSTSYADSVKGRFTISRDNAKNTLYLQMNSLKPEDTAVYYCQRGDYEFEPLEYDYWGQGTQVTVSS
notes: llama VHH against CXCL11; not shown: C-terminal c-myc tag and (His)6 tag coded by the vector
[2]
  binding result: binds

B3: Nanobody 11E2 (VHH)
VHH: EVQLVESGGGLVQAGGSLRLSCAASGFTFDDYAIGWFRQAPGKEREGVSCISSSDDSTYYADSVKGRFTISSDTAKNTVYLQMDSLKPEDTAVYYCAKDCIIPPIGSWGQGTQVTVSS
notes: as for B2
[1]
  binding result: binds

B4: Nanobody 11B7 (VHH)
VHH: EVQLVESGGGLVQAGGSLRLSCAASGFNFDDYAIGWFRQAPGKEREGVSIISSSDGNTYYADSVKGRFTISSDNAKNTVYLQMNSLKPEDTAVYYCAAGQGWVIATMTSFRAHREYDYWGQGTQVTVSS
notes: llama VHH against CXCL11; purified; not shown: C-terminal c-myc tag and (His)6 tag coded by the vector
[3]
  inhibition of CXCL11-induced PLC activation (3H-inositol phosphate accumulation, HEK293T cells with CXCR3 and G-alpha-qi5), pIC50: 7.9
[4]
  pIC50: 9.6

B5: Nanobody 11E7 (VHH)
VHH: EVQLVESGGGLVQAGGSLRLSCAASGFTFDDYAIGWFRQAPGKEREGVSIISSSDGTTYYADSVKGRFTISTDNAKNTVYLQMNSLKPEDTAVYYCAAGQGWVIATMTSFRAHREYDYWGQGTQVTVSS
notes: as for B2
[5]
  binding result: binds

B6: Nanobody 11B1 (VHH)
VHH: EVQLVESGGGLVQAGGSLRLSCAASGFTFDDYTIGWFRQAPGKEREGVSCISSSDGSTYYADSVKGRFTISSDNVKNTVYLQMNSLKPEDTAVYYCAASLGFLTAQCMGVMSIGLSEYDYWGQGTQVTVSS
notes: as for B4
[3]
  inhibition of CXCL11-induced PLC activation (3H-inositol phosphate accumulation, HEK293T cells with CXCR3 and G-alpha-qi5), pIC50: 7.8
[4]
  pIC50: 9.6

B7: Nanobody 8E3 (VHH)
VHH: EVQLVESGGGLVQAGGSLRLSCAASGGTFSSYRMGWFRQAPGKEREFVTLISRSGGTTDYTDSVKGRFTISRDNAKNTVSLQMNNLKPADTAVYYCAAAGSMGWNHLRDYDYWGQGTQVTVSS
notes: llama VHH against CCL2; purified; not shown: C-terminal c-myc tag and (His)6 tag coded by the vector
[6]
  pIC50: 9

B8: Nanobody 10A12 (VHH)
VHH: EVQLVESGGGLVQAGGSLRLSCAASGFTFDDYAIGWFRQVPGKERKGVSCISSSDGTTYYEDSVKGRFTISSDNAKNTIYLQMNSLKPEDTAVYYCAAAPPDCTYYPATPIYYWGQGTQVTVSS
notes: llama VHH against CCL5; purified; not shown: C-terminal c-myc tag and (His)6 tag coded by the vector
[7]
  binding result: binds
CCL5
  binding result: binds

B9: Nanobody 8D3 (VHH)
VHH: EVQLVESGGGLVQAGGSLRLSCAASGRTFSNYAMGWFRQAPGKEREFVAAISWSDGSTYYADSVKGRFTISRDNAKNTVYLLMNSLNPEDTAVYYCAADLLAEDPAAPSRGYDYWGQGTQVTVSS
notes: llama VHH against CCL2; not shown: C-terminal c-myc tag and (His)6 tag coded by the vector
[8]
  binding result: binds

B10: Nanobody 11D9 (VHH)
VHH: EVQLVESGGGLVQAGGSLRLSCAASGFTFDDYPIGWFRQAPGKEREGISCISSSDGSTYYADSVKGRFTISSDNAKNTVYLQMNSLKPEDTAVYYCAAGLGALVRYYSGSYYCDGMDYWGKGTLVTVSS
notes: as for B2
[5]
  binding result: binds

B11: Nanobody 11G10 (VHH)
VHH: EVQLVESGGGLVQPGGSLRLSCAASGFTLDDYAIGWFRQAPGKEREGVSSISSSDGRTYYADSVKGRFAISRDNAKNTVYLQMNSLKPEDTAVYYCAADQGVVAYDALRPYRWLEVWGQGTLVTVSS
notes: as for B2
[5]
  binding result: binds

B12: Nanobody 8A8 (VHH)
VHH: EVQLVESGGGLVQAGGSLRLSCAASGRTFSSYRMGWFRQAPEKEREFVAVITRSGSDQFYSNSVKGRFTISRDNAKNTVYLQMNSLKPEDTAVYYCAAGAQIGWAEASTYDYWGQGTQVTVSS
notes: llama VHH against CCL2; also called 8D8; 15C7; not shown: C-terminal c-myc tag and (His)6 tag coded by the vector
[9]
  binding result: binds

B13: Nanobody 8H8 (VHH)
VHH: EMQLVESGGGLVQAGGSLRLSCAASGRTFSSYRMGWFRQAPEKEREFVALINRSGGSQFYSNSVKGRFTISRDNAKNTVYLQMNSLKPEDTAVYYCAAGAQMGWAEASTYDYWGQGTQVTVSS
notes: as for B9
[9]
  binding result: binds

B14: Nanobody 15C8 (VHH)
VHH: EVQLVESGGGLVQAGGSLRLSCAASGRTFSSYRMGWFRQAPEKEREFVAVITRSGGSTFYSNSVKGRFTISRDNAKNTVYLQMNSLKPEDTAVYYCAAGAQMGWAEASTYDYWGQGTQVTVSS
notes: as for B9
[9]
  binding result: binds

B15: Nanobody 8A3 (VHH)
VHH: EVQLVESGGGLVQAGGSLRLSCVASGLTFSTYSMGWFRQAPGKEREFVAAINGGGSSTTYADSVKGRFTISRDNAKNTVYLQMNSLKPEDTAVYSCAVKMYSGSYSSPPGYNYWGQGTQVTVSS
notes: as for B9
[8]
  binding result: binds

B16: Nanobody 8E10 (VHH)
VHH: EVQLVESGGGLVQAGDSLRLSCAASGRTFSSYRMGWFRQAPGKEREFVAAISRSGASAYYADSVKGRFTCSRDNAKDTVYLQMNKLKPEDTAVYYCAASSRMGVDDPETYGYWGQGTQVTVSS
notes: as for B7
[6]
  pIC50: 8.7

B17: Nanobody 8H7 (VHH)
VHH: EVQLVESGGGLVQAGDSLRLSCAASGRTFSSYRMGWFRQAPGKEREFVAAISRSGASAYYADSVKGRFTSSRDNAKNTVYLQMNKLKPEDTAVYYCAASSRIGVDDPEAYGYWSQGTQVTVSS
notes: as for B9
[9]
  binding result: binds

B18: Nanobody 11F10 (VHH)
VHH: EVQLVESGGGLVQAGGSLRLSCAASGFTLDDYAIGWFRQAPGKEREGVSCISSSDGSTYYADSVKGRFTISSDNAKNTVYLQMNSLKPEDTAVYYCAAGQGVLRLWVLSSSSYDYWGQGTQVTVSS
notes: as for B2
[5]
  binding result: binds

B19: Nanobody 38G6 (VHH)
VHH: EVQLVESGGGLVQAGGSLRLSCEASGFTFDDYAIGWFRQAPGKEREGVSCCSSSDGSTYYADSVKGRFTISSDNAKNTVYLQMNSLKPEDTAVYYCAATQGLLIATMWNPASYDYWGQGTQVTVSS
notes: as for B2
[2]
  binding result: binds

B20: Nanobody 38C6 (VHH)
VHH: EVQLVESGGGLVQAGGSLRLSCAASGFTFDDYAIGWFRQAPGKEREGVSCCSSSDGSTYYADSVKGRFTISSDNAKNTVYLQMNSLKPEDTAVYYCAATQGLTIATMWNPVSYDYWGQGTQVTVSS
notes: as for B2
[2]
  binding result: binds

B21: Nanobody 11G2 (VHH)
VHH: EVQLVESGGGLVQAGGSLRLSCAASGFTFDDYAIGWFRQAPGKEREGVSWISSSDGSTYYADSVKGRFTISSDNAKNTVYLQMNSLKPEDTAVYYCAAGAGFLITTIWTTQMYDYWGQGTQVTVSS
notes: as for B2
[1]
  binding result: binds

B22: Nanobody 10E8 (VHH)
VHH: EVQLVESGGGLVQAGGSLRLSCAASGRTFSSYYMGWFRQAPGKEREFVARIGWSSGSTYYADSMKGRFTISRDNAKNTVYLQMNSLKPEDTAVYYCAAAPRYTLATVTYDYDYWGQGTQVTVSS
notes: as for B8
[7]
  binding result: binds
CCL5
  binding result: binds

B23: Nanobody 11B2 (VHH)
VHH: EVQLVESGGGLVQAGGSLRLSCAASGFTFDDYAMCWFRQAPGKEREGVSCISSSDGSTYYADSVKGRFTISSDNAKNTVYLHMNSLKPEDTAVYYCAAAQGVVAGASLVWVPLDEYDYWGQGTQVTVSS
notes: as for B4
[3]
  inhibition of CXCL11-induced PLC activation (3H-inositol phosphate accumulation, HEK293T cells with CXCR3 and G-alpha-qi5), pIC50: 7.6
[4]
  pIC50: 9.1

B24: Nanobody 15A8 (VHH)
VHH: EVQLVESGGGLVQAGGSLRLSCAASGFTFDDYAIGWFRQAPGKEREGPLCISSSDGSTYYADSVKGRFTISSDNAKNTVYLQMNSLKPEDTAVYYCAAESLGDYGLASPLPADFGSWGQGTQVTVSS
notes: as for B9
[9]
  binding result: binds
